The assay deals with T1, insulin receptor (IR) of mouse primary hepatocytes (mouse, UniProt P15208 28-748; P15208 753-1372).
T1 construct: whole, on cells; Endogenous receptor on intact primary hepatocytes from wild type or PKCε-/- mice; in cell lysates for the co-precipitation
As to the kind of experiment: co-precipitation from hepatocytes of wild type mice; data not shown.

T1 sequence (P15208 28-748 limits assumed, chain 1 of 2): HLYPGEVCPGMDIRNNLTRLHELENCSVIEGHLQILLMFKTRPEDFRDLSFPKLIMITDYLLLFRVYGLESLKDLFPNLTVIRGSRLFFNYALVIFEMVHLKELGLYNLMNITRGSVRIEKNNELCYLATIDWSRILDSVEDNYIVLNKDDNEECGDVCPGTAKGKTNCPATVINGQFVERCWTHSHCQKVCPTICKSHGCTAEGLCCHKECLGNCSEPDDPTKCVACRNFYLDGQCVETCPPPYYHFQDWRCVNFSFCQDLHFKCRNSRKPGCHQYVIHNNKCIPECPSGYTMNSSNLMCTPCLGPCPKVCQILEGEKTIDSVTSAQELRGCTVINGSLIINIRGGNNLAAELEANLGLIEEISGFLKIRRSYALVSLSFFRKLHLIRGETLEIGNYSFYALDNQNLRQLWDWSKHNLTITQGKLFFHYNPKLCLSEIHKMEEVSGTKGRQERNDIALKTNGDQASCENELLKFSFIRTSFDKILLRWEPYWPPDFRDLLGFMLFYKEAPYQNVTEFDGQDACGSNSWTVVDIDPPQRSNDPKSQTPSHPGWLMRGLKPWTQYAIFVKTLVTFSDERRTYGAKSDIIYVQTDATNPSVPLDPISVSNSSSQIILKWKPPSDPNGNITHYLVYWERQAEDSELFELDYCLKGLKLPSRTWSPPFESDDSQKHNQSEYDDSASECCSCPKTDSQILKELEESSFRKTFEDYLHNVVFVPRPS
T1 sequence (P15208 753-1372 limits assumed, chain 2 of 2): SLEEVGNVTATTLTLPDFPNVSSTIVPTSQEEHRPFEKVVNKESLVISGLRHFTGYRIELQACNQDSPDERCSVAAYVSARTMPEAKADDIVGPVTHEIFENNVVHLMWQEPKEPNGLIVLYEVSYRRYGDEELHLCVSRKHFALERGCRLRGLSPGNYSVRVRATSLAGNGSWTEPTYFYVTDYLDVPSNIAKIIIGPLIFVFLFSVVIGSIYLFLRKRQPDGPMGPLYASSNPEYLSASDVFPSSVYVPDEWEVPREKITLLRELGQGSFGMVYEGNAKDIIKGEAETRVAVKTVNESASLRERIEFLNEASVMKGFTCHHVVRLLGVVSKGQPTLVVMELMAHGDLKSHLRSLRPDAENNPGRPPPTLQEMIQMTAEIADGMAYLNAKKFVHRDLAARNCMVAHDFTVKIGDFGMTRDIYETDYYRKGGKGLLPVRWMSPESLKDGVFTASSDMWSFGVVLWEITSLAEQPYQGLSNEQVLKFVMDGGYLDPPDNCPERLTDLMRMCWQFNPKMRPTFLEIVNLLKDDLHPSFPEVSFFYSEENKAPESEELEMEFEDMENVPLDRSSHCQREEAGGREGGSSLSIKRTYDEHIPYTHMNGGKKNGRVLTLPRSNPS

B1: protein kinase C epsilon (PKCε), murine (enzyme)
chain: MVVFNGLLKIKICEAVSLKPTAWSLRHAVGPRPQTFLLDPYIALNVDDSRIGQTATKQKTNSPAWHDEFVTDVCNGRKIELAVFHDAPIGYDDFVANCTIQFEELLQNGSRHFEDWIDLEPEGKVYVIIDLSGSSGEAPKDNEERVFRERMRPRKRQGAVRRRVHQVNGHKFMATYLRQPTYCSHCRDFIWGVIGKQGYQCQVCTCVVHKRCHELIITKCAGLKKQETPDEVGSQRFSVNMPHKFGIHNYKVPTFCDHCGSLLWGLLRQGLQCKVCKMNVHRRCETNVAPNCGVDARGIAKVLADLGVTPDKITNSGQRRKKLAAGAESPQPASGNSPSEDDRSKSAPTSPCDQELKELENNIRKALSFDNRGEEHRASSATDGQLASPGENGEVRPGQAKRLGLDEFNFIKVLGKGSFGKVMLAELKGKDEVYAVKVLKKDVILQDDDVDCTMTEKRILALARKHPYLTQLYCCFQTKDRLFFVMEYVNGGDLMFQIQRSRKFDEPRSRFYAAEVTSALMFLHQHGVIYRDLKLDNILLDAEGHCKLADFGMCKEGIMNGVTTTTFCGTPDYIAPEILQELEYGPSVDWWALGVLMYEMMAGQPPFEADNEDDLFESILHDDVLYPVWLSKEAVSILKAFMTKNPHKRLGCVAAQNGEDAIKQHPFFKEIDWVLLEQKKIKPPFKPRIKTKRDVNNFDQDFTREEPILTLVDEAIIKQINQEEFKGFSYFGEDLMP
notes: Endogenous PKCε in hepatocytes of wild type mice
On to B1, for which the binding result was “no binding”.

The record behind these values is patent US20080263689A1 (GARVAN INSTITUTE OF MEDICAL RESEARCH, published 2008).
